For the assay, the target named is anti-human β-tryptase antibody. Description: sandwich ELISA dose response: plate coated with anti-human β-tryptase antibody, β-tryptase calibrator titrated, detected with AP-conjugated anti-human β-tryptase, luminescence.

These results are taken from patent US20150346200A1.

“human β-tryptase (from UniProt Q15661 31-275) (enzyme)”: the EC50 worked out at 0.065 µg/mL.

What is called EC50 is the concentration that produces a half-maximal response. A lower EC50 goes with an effect from little substance.
